Results: article PMC3762817, “Therapeutic Targeting of Tumor Growth and Angiogenesis with a Novel Anti-S100A4 Monoclonal Antibody” (PLoS ONE, 2013)

Target: T1, human recombinant RAGE-Fc Chimera (human, UniProt Q15109 23-342)
T1 construct: RAGE (receptor for advanced glycation end products), human; also called RAGE receptor; immobilized RAGE; source: bought: R&D Systems
Experiment: SPR; Biacore T100; about 1,000 RU of RAGE-Fc immobilised on a CM5 chip by amine coupling; S100A4 0.625-5 µM passed over at 15 µL/min, 60 s contact time; regeneration with 50 mM NaOH
Conditions: both partners purified

T1 sequence (Q15109 23-342, change not shown): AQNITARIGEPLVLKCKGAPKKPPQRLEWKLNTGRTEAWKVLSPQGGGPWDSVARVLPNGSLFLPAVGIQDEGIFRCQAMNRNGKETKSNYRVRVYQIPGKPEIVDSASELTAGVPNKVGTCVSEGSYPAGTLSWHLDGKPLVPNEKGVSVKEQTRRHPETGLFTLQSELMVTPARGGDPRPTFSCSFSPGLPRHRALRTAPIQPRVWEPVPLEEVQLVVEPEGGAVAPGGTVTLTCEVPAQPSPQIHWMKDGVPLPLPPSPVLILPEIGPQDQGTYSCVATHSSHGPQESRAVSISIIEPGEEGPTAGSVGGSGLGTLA

binding result: binds
B1: human recombinant S100A4 (natural protein)
chain: not shown
notes: S100A4, human; The His tag is inferred, and its removal is not mentioned; also called S100A4 fusion protein
